Assay results taken from patent publication US20260217789A1 (GLYCOERA, published 2026).

What was measured:
[1] = molecular target: T1, PLA2R glycoengineered polypeptide (human, UniProt Q13018 21-505, N-glycans, mainly A2GalNAc2 (83.6% of total N-glycan); six N-glycosylation sites: N93, N315, N433, N454, N473 and one in the C-terminal glycotag; occupancy per Table 2: N93 >99%, N315 <10%, N433 <1%, …); assay: SPR, Biacore 8K, steady state KD; biotinylated ASGPR1 on streptavidin, 2 mM CaCl2 (FIG. 1C)
T1 construct: Secreted from glycoengineered Leishmania tarentolae (cell line StCGP6199) and purified by IMAC; also called exemplary PLA2R glycoengineered polypeptide; glycoengineered PLA2R polypeptide
T1 sequence (Q13018 other isoform, or with tags, fused parts or gaps): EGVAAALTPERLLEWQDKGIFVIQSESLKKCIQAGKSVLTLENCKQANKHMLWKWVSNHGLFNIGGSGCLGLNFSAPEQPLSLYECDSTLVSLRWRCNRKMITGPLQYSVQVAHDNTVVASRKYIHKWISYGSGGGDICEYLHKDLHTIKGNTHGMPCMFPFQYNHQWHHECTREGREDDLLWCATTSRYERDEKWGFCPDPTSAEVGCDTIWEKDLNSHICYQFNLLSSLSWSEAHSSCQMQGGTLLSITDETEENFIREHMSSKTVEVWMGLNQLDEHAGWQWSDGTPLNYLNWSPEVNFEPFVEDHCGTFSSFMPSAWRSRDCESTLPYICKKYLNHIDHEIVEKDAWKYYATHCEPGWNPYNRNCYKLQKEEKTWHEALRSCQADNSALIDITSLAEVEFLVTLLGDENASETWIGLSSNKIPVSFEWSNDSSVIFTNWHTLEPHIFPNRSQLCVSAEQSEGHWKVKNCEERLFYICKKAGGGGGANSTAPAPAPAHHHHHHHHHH
Description: (§1) Methods: Surface plasmon resonance (SPR) was used to measure binding kinetics (i.e., ka, kd, KD, equilibrium) of a glycoengineered PLA2R polypeptide. SPR data was collected with a Biacore 8K instrument to characterize interactions between the PLA2R glycoengineered polypeptide and surrogate anti-PLA2R antibody 12-6-5 in multiple assay formats. The surrogate antibody was either captured using the Fc tag or covalently immobilized on the sensor surface, and the PLA2R glycoengineered polypeptide construct was injected in increasing concentrations in a single cycle kinetics experiment. The contact time was 300 s and the dissociation time was 1200 s. The data was fit to a 1:1 binding model with the global fitting software provided by Cytivia. For ASGPR1 binding experiments, biotinylated recombinant human ASGPR1 (Acro Biosystems) was immobilized using streptavidin capture, and increasing concentrations of the PLA2R glycoengineered polypeptide were injected in a single cycle kinetics experiment. ASGPR1 assays included 2 mM CaCl₂) in the running buffer. The data were fit using a heterogeneous binding model using the Cytvia provided software.

[2] = molecular target: T1, PLA2R glycoengineered polypeptide; assay: SPR, Biacore 8K, single cycle kinetics, heterogeneous binding model; biotinylated ASGPR1 on streptavidin, 2 mM CaCl2 (FIG. 1C)
Description: as §1

[3] = molecular target: T1, PLA2R glycoengineered polypeptide; assay: SPR (Biacore 8K), single cycle kinetics, immobilized ligand ASGPR1 1ug/mL (biotinylated, streptavidin capture), heterogeneous binding model; column KD1 (first component)
Description: as §1

[4] = molecular target: T1, PLA2R glycoengineered polypeptide; assay: SPR (Biacore 8K), single cycle kinetics, immobilized ligand ASGPR1 1ug/mL (biotinylated, streptavidin capture), heterogeneous binding model; column ka1 (first component)
Description: as §1

[5] = molecular target: T1, PLA2R glycoengineered polypeptide; assay: SPR (Biacore 8K), single cycle kinetics, immobilized ligand ASGPR1 1ug/mL (biotinylated, streptavidin capture), heterogeneous binding model; column kd1 (first component)
Description: as §1

B1: biotinylated recombinant human ASGPR1 (Acro Biosystems) (receptor, UniProt P07306 62-291, looked up)
chain: QNSQLQEELRGLRETFSNFTASTEAQVKGLSTQGGNVGRKMKSLESQLEKQQKDLSEDHSSLLLHVKQFVSDLRSLSCQMAALQGNGSERTCCPVNWVEHERSCYWFSRSGKAWADADNYCRLEDAHLVVVTSWEEQKFVQHHIGPVNTWMGLHDQNGPWKWVDGTDYETGFKNWRPEQPDDWYGHGLGGGEDCAHFTDDGRWNDDVCQRPYRWVCETELDKASQEPPLL
modifications: biotinylated
notes: It was immobilized by streptavidin capture
[1]
  Kd: 1280 nM
[2]
  koff: 0.104 s⁻¹
  kon: 80900 M⁻¹ s⁻¹
[3]
  Kd: 7 nM
[4]
  kon: 421000 M⁻¹ s⁻¹
[5]
  koff: 0.00294 s⁻¹
